Among the data in patent publication US20140363428A1 (Chugai, published 2014) are Kd values, retold here.

First the molecules themselves.
B1: IgG1-F1185 (antibody)
heavy: QVQLQESGPGLVKPSETLSLTCAVSGHSISHDHAWSWVRQPPGEGLEWIGFISYSGITNYNPSLQGRVTISRDNSKNTLYLQMNSLRAEDTAVYYCARSLARTTAMDYWGEGTLVTVSSASTKGPSVFPLAPSSKSTSGGTAALGCLVKDYFPEPVTVSWNSGALTSGVHTFPAVLQSSGLYSLSSVVTVPSSSLGTQTYICNVNHKPSNTKVDKKVEPKSCDKTHTCPPCPAPELLGGPSVFLFPPKPKDTLMISRTPEVTCVVVDVSHEDPEVKFNWYVDGVEVHNAKTKPREEQYNSTYRVVSVLAVLHQDWLNGKEYKCKVSNKALPAPIEKTISKAKGQPREPQVYTLPPSRDELTKNQVSLTCLVKGFYPSDIAVAWESNGQPENNYKTTPPVLDSDGSFFLYSKLTVDKSRWQQGNVFSCSVLHEALHSHYTQKSLSLSP
light: not shown
notes: EU numbering; copies: 2 + 2
B2: IgG1-F1188 (antibody)
heavy: QVQLQESGPGLVKPSETLSLTCAVSGHSISHDHAWSWVRQPPGEGLEWIGFISYSGITNYNPSLQGRVTISRDNSKNTLYLQMNSLRAEDTAVYYCARSLARTTAMDYWGEGTLVTVSSASTKGPSVFPLAPSSKSTSGGTAALGCLVKDYFPEPVTVSWNSGALTSGVHTFPAVLQSSGLYSLSSVVTVPSSSLGTQTYICNVNHKPSNTKVDKKVEPKSCDKTHTCPPCPAPELLGGPSVFLFPPKPKDTLMISRTPEVTCVVVDVSHEDPEVKFNWYVDGVEVHNAKTKPREEQYNSTYRVVSVLAVLHQDWLNGKEYKCKVSNKALPAPIEKTISKAKGQPREPQVYTLPPSRDELTKNQVSLTCLVKGFYPSDIAVAWESNGQPENNYKTTPPVLDSDGSFFLYSKLTVDKSRWQQGNVFSCSVMHEALHHHYTQKSLSLSP
light: not shown
notes: EU numbering; copies: 2 + 2
B3: IgG1-F1198 (antibody)
heavy: QVQLQESGPGLVKPSETLSLTCAVSGHSISHDHAWSWVRQPPGEGLEWIGFISYSGITNYNPSLQGRVTISRDNSKNTLYLQMNSLRAEDTAVYYCARSLARTTAMDYWGEGTLVTVSSASTKGPSVFPLAPSSKSTSGGTAALGCLVKDYFPEPVTVSWNSGALTSGVHTFPAVLQSSGLYSLSSVVTVPSSSLGTQTYICNVNHKPSNTKVDKKVEPKSCDKTHTCPPCPAPELLGGPSVFLFPPKPKDTLYISREPEVTCVVVDVSHEDPEVKFNWYVDGVEVHNAKTKPREEQYNSTYRVVSVLTVLHQDWLNGKEYKCKVSNKALPAPIEKTISKAKGQPREPQVYTLPPSRDELTKNQVSLTCLVKGFYPSDIAVEWESNGQPENNYKTTPPVLDSDGSFFLYSKLTVDKSRWQQGNVFSCSVMHEALHYHVTRKELSLSP
light: not shown
notes: EU numbering; copies: 2 + 2
B4: IgG1-F1191 (antibody)
heavy: QVQLQESGPGLVKPSETLSLTCAVSGHSISHDHAWSWVRQPPGEGLEWIGFISYSGITNYNPSLQGRVTISRDNSKNTLYLQMNSLRAEDTAVYYCARSLARTTAMDYWGEGTLVTVSSASTKGPSVFPLAPSSKSTSGGTAALGCLVKDYFPEPVTVSWNSGALTSGVHTFPAVLQSSGLYSLSSVVTVPSSSLGTQTYICNVNHKPSNTKVDKKVEPKSCDKTHTCPPCPAPELLGGPSVFLFPPKPKDTLYISRTPEVTCVVVDVSHEDPEVKFNWYVDGVEVHNAKTKPREEQYNSTYRVVSVLTVLHQDWLNGKEYKCKVSNKALPAPIEKTISKAKGQPREPQVYTLPPSRDELTKNQVSLTCLVKGFYPSDIAVEWESNGQPENNYKTTPPVLDSDGSFFLYSKLTVDKSRWQQGNVFSCSVMHEALHYHVARKELSLSP
light: not shown
notes: EU numbering; copies: 2 + 2
B5: IgG1-F1195 (antibody)
heavy: QVQLQESGPGLVKPSETLSLTCAVSGHSISHDHAWSWVRQPPGEGLEWIGFISYSGITNYNPSLQGRVTISRDNSKNTLYLQMNSLRAEDTAVYYCARSLARTTAMDYWGEGTLVTVSSASTKGPSVFPLAPSSKSTSGGTAALGCLVKDYFPEPVTVSWNSGALTSGVHTFPAVLQSSGLYSLSSVVTVPSSSLGTQTYICNVNHKPSNTKVDKKVEPKSCDKTHTCPPCPAPELLGGPSVFLFPPKPKDTLYISRTPEVTCVVVDVSHEDPEVKFNWYVDGVEVHNAKTKPREEQYNSTYRVVSVLTVLHQDWLNGKEYKCKVSNKALPAPIEKTISKAKGQPREPQVYTLPPSRDELTKNQVSLTCLVKGFYPSDIAVEWESNGQPENNYKTTPPVLDSDGSFFLYSKLTVDKSRWQQGNVFSCSVMHEALHYHVTRKEASLSP
light: not shown
notes: EU numbering; copies: 2 + 2
B6: IgG1-F1192 (antibody)
heavy: QVQLQESGPGLVKPSETLSLTCAVSGHSISHDHAWSWVRQPPGEGLEWIGFISYSGITNYNPSLQGRVTISRDNSKNTLYLQMNSLRAEDTAVYYCARSLARTTAMDYWGEGTLVTVSSASTKGPSVFPLAPSSKSTSGGTAALGCLVKDYFPEPVTVSWNSGALTSGVHTFPAVLQSSGLYSLSSVVTVPSSSLGTQTYICNVNHKPSNTKVDKKVEPKSCDKTHTCPPCPAPELLGGPSVFLFPPKPKDTLYISRTPEVTCVVVDVSHEDPEVKFNWYVDGVEVHNAKTKPREEQYNSTYRVVSVLTVLHQDWLNGKEYKCKVSNKALPAPIEKTISKAKGQPREPQVYTLPPSRDELTKNQVSLTCLVKGFYPSDIAVEWESNGQPENNYKTTPPVLDSDGSFFLYSKLTVDKSRWQQGNVFSCSVMHEALHYHVGRKELSLSP
light: not shown
notes: EU numbering; copies: 2 + 2
B7: IgG1-F1197 (antibody)
heavy: QVQLQESGPGLVKPSETLSLTCAVSGHSISHDHAWSWVRQPPGEGLEWIGFISYSGITNYNPSLQGRVTISRDNSKNTLYLQMNSLRAEDTAVYYCARSLARTTAMDYWGEGTLVTVSSASTKGPSVFPLAPSSKSTSGGTAALGCLVKDYFPEPVTVSWNSGALTSGVHTFPAVLQSSGLYSLSSVVTVPSSSLGTQTYICNVNHKPSNTKVDKKVEPKSCDKTHTCPPCPAPELLGGPSVFLFPPKPKDTLYITRTPEVTCVVVDVSHEDPEVKFNWYVDGVEVHNAKTKPREEQYNSTYRVVSVLTVLHQDWLNGKEYKCKVSNKALPAPIEKTISKAKGQPREPQVYTLPPSRDELTKNQVSLTCLVKGFYPSDIAVEWESNGQPENNYKTTPPVLDSDGSFFLYSKLTVDKSRWQQGNVFSCSVMHEALHYHVTRKELSLSP
light: not shown
notes: EU numbering; copies: 2 + 2
B8: IgG1-F1189 (antibody)
heavy: QVQLQESGPGLVKPSETLSLTCAVSGHSISHDHAWSWVRQPPGEGLEWIGFISYSGITNYNPSLQGRVTISRDNSKNTLYLQMNSLRAEDTAVYYCARSLARTTAMDYWGEGTLVTVSSASTKGPSVFPLAPSSKSTSGGTAALGCLVKDYFPEPVTVSWNSGALTSGVHTFPAVLQSSGLYSLSSVVTVPSSSLGTQTYICNVNHKPSNTKVDKKVEPKSCDKTHTCPPCPAPELLGGPSVFLFPPKPKDTLYISRTPEVTCVVVDVSHEDPEVKFNWYVDGVEVHNAKTKPREEQYNSTYRVVSVLTVLHQDWLNGKEYKCKVSNKALPAPIEKTISKAKGQPREPQVYTLPPSRDELTKNQVSLTCLVKGFYPSDIAVEWESNGQPENNYKTTPPVLDSDGSFFLYSKLTVDKSRWQQGNVFSCSVMHEALDYHVTRKELSLSP
light: not shown
notes: EU numbering; copies: 2 + 2
B9: IgG1-F1194 (antibody)
heavy: QVQLQESGPGLVKPSETLSLTCAVSGHSISHDHAWSWVRQPPGEGLEWIGFISYSGITNYNPSLQGRVTISRDNSKNTLYLQMNSLRAEDTAVYYCARSLARTTAMDYWGEGTLVTVSSASTKGPSVFPLAPSSKSTSGGTAALGCLVKDYFPEPVTVSWNSGALTSGVHTFPAVLQSSGLYSLSSVVTVPSSSLGTQTYICNVNHKPSNTKVDKKVEPKSCDKTHTCPPCPAPELLGGPSVFLFPPKPKDTLYISRTPEVTCVVVDVSHEDPEVKFNWYVDGVEVHNAKTKPREEQYNSTYRVVSVLTVLHQDWLNGKEYKCKVSNKALPAPIEKTISKAKGQPREPQVYTLPPSRDELTKNQVSLTCLVKGFYPSDIAVEWESNGQPENNYKTTPPVLDSDGSFFLYSKLTVDKSRWQQGNVFSCSVMHEALHYHVTRDELSLSP
light: not shown
notes: EU numbering; copies: 2 + 2
B10: IgG1-F1199 (antibody)
heavy: QVQLQESGPGLVKPSETLSLTCAVSGHSISHDHAWSWVRQPPGEGLEWIGFISYSGITNYNPSLQGRVTISRDNSKNTLYLQMNSLRAEDTAVYYCARSLARTTAMDYWGEGTLVTVSSASTKGPSVFPLAPSSKSTSGGTAALGCLVKDYFPEPVTVSWNSGALTSGVHTFPAVLQSSGLYSLSSVVTVPSSSLGTQTYICNVNHKPSNTKVDKKVEPKSCDKTHTCPPCPAPELLGGPSVFLFPPKPKDTLYITREPEVTCVVVDVSHEDPEVKFNWYVDGVEVHNAKTKPREEQYNSTYRVVSVLTVLHQDWLNGKEYKCKVSNKALPAPIEKTISKAKGQPREPQVYTLPPSRDELTKNQVSLTCLVKGFYPSDIAVEWESNGQPENNYKTTPPVLDSDGSFFLYSKLTVDKSRWQQGNVFSCSVMHEALHYHVTRKELSLSP
light: not shown
notes: EU numbering; copies: 2 + 2
B11: IgG1-F1200 (antibody)
heavy: QVQLQESGPGLVKPSETLSLTCAVSGHSISHDHAWSWVRQPPGEGLEWIGFISYSGITNYNPSLQGRVTISRDNSKNTLYLQMNSLRAEDTAVYYCARSLARTTAMDYWGEGTLVTVSSASTKGPSVFPLAPSSKSTSGGTAALGCLVKDYFPEPVTVSWNSGALTSGVHTFPAVLQSSGLYSLSSVVTVPSSSLGTQTYICNVNHKPSNTKVDKKVEPKSCDKTHTCPPCPAPELLGGPSVFLFPPKPKDVLYITRTPEVTCVVVDVSHEDPEVKFNWYVDGVEVHNAKTKPREEQYNSTYRVVSVLTVLHQDWLNGKEYKCKVSNKALPAPIEKTISKAKGQPREPQVYTLPPSRDELTKNQVSLTCLVKGFYPSDIAVEWESNGQPENNYKTTPPVLDSDGSFFLYSKLTVDKSRWQQGNVFSCSVMHEALHYHVTRKELSLSP
light: not shown
notes: EU numbering; copies: 2 + 2
B12: IgG1-F1196 (antibody)
heavy: QVQLQESGPGLVKPSETLSLTCAVSGHSISHDHAWSWVRQPPGEGLEWIGFISYSGITNYNPSLQGRVTISRDNSKNTLYLQMNSLRAEDTAVYYCARSLARTTAMDYWGEGTLVTVSSASTKGPSVFPLAPSSKSTSGGTAALGCLVKDYFPEPVTVSWNSGALTSGVHTFPAVLQSSGLYSLSSVVTVPSSSLGTQTYICNVNHKPSNTKVDKKVEPKSCDKTHTCPPCPAPELLGGPSVFLFPPKPKDTLYISRTPEVTCVVVDVSHEDPEVKFNWYVDGVEVHNAKTKPREEQYNSTYRVVSVLTVLHQDWLNGKEYKCKVSNKALPAPIEKTISKAKGQPREPQVYTLPPSRDELTKNQVSLTCLVKGFYPSDIAVEWESNGQPENNYKTTPPVLDSDGSFFLYSKLTVDKSRWQQGNVFSCSVMHEALHYHVTRKEESLSP
light: not shown
notes: EU numbering; copies: 2 + 2
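Also: KD calculated from fitted association and dissociation rate constants of the sensorgrams, protein L amine-coupled to the sensor chip, sodium phosphate running buffer with NaCl and Tween20.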

The target of this assay is T1, soluble human FcRn (human, UniProt P55899 24-297; P61769 21-119).
T1 construct: Heterodimer of FcRn alpha chain and beta2-microglobulin; also called hFcRn
T1 sequence (P55899 24-297 limits assumed, chain 1 of 2): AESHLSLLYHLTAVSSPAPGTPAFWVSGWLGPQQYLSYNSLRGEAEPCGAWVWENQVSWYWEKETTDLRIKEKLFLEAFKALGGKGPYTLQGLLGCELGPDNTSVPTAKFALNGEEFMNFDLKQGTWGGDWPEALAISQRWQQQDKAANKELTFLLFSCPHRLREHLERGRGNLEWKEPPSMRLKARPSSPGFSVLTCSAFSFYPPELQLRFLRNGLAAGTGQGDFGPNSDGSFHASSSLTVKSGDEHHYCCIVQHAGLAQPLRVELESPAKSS
T1 sequence (P61769 21-119 limits assumed, chain 2 of 2): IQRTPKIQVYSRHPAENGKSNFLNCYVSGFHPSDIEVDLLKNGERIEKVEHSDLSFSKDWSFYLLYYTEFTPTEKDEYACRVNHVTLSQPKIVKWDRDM
The experiment in a line: SPR (Biacore T100), antibody captured by protein L, hFcRn as analyte, pH 7.0, 25 C. (In SPR one partner is held on a chip, and binding of the other changes the refractive index at the surface.)
Description: An appropriate amount of protein L (ACTIGEN) was immobilized onto Sensor chip CM4 (GE Healthcare) by the amino coupling method, and the chip was allowed to capture an antibody of interest. Then, diluted FcRn solutions and running buffer (as a reference solution) were injected to allow human FcRn to interact with the antibody captured on the sensor chip. The running buffer used comprised 50 mmol/l sodium phosphate, 150 mmol/l NaCl, and 0.05% (w/v) Tween20 (pH 7.0). FcRn was diluted using each buffer. The chip was regenerated using 10 mmol/l glycine-HCl (pH 1.5). Assays were carried out exclusively at 25 degrees C. The association rate constant ka (1/Ms) and dissociation rate constant kd (1/s), both of which are kinetic parameters, were calculated based on the sensorgrams obtained in the assays, and KD (M) of each antibody for human FcRn was determined from these values. Each parameter was calculated using Biacore T100 Evaluation Software (GE Healthcare).
Broadly, the Kd is the concentration at which binding is half-saturated. Regarding B1, the affinity, expressed as Kd, was 920 nM.

In turn, B2 registered a Kd of 1700 nM.

Turning to B3, the affinity, expressed as Kd, was 78 nM.

The molecule B4 came in with a Kd of 210 nM.

B5 showed a Kd of 180 nM.

B6 displayed an equilibrium dissociation constant (Kd) of 130 nM.

B7 gave a Kd of 95 nM.

Molecule B8 had a Kd of 160 nM.

In turn, B9 showed a Kd of 160 nM. That is a sub-micromolar value.

Take B10: the affinity, expressed as Kd, was 62 nM. This Kd is about 2.6-fold lower than that of the molecule before.

B11 returned a Kd of 130 nM.

The molecule B12 displayed a Kd of 150 nM.
